In doi:10.1101/2024.05.23.595592 one finds Kd data, which are given here for one molecule.

In this assay the target is TREM2 R77D, biotinylated (human) (UniProt Q9NZC2). The assay is described as follows: BLI. A general note: BLI is a label-free optical method that tracks binding on a fibre tip over time.
Chain of TREM2 R77D, biotinylated (human) (Q9NZC2 19-230 R77D): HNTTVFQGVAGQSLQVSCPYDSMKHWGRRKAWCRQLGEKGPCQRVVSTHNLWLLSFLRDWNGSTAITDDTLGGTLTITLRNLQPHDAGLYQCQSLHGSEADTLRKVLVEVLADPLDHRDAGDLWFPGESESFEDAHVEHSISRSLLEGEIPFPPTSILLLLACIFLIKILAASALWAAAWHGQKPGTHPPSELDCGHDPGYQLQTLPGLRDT

B1: Human IL-34 (19-241) (ligand)
chain: LGNEPLEMWPLTQNEECTVTGFLRDKLQYRSRLQYMKHYFPINYKISVPYEGVFRIANVTRLQRAQVSERELRYLWVLVSLSATESVQDVLLEGHPSWKYLQEVETLLLNVQQGLTDVEVSPKVESVLSLLNAPGPNLKLVRPKALLDNCFRVMELLYCSCCKQSSVLNWQDCEVPSPQSCSPEPSLQYAATQLYPPPPWSPSSPPHSTGSVRPVRAQGEGLL
B1: the Kd was determined as 114 nM.

The term Kd denotes the equilibrium constant for the complex coming apart. A higher Kd goes with lower affinity.
